B1: BCL2L13 (parent)
chain: QSLDQEILLKVKTEIEEELKSLDK

Variants of: B1
Assay: protein stability index of a GFP-peptide fusion (GPS, HEK-293T) (PSI 1-6); higher = more stable
Conditions: c terminus: a fixed tail appended
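Further: lentivirally expressed fusions sorted by FACS into six bins by GFP to DsRed ratio, PSI derived from sequencing read proportions per bin multiplied by bin number.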

Question: Which protein stability index does the source give for QSLDQEILLKQKTEIEEELKSLDK [V11Q] here?
Answer: 5.54

Question: Which protein stability index does the source give for QSLDQEILLKCKTEIEEELKSLDK [V11C] here?
Answer: 4.77

Question: With QSLDQEILLKRKTEIEEELKSLDK [V11R] as the variant, how does the protein stability index read?
Answer: 5.33

Question: For QSLDQEILLKIKTEIEEELKSLDK [V11I], which protein stability index is on record?
Answer: 4.19

Question: Which protein stability index does the source give for QSLDQEILLKKKTEIEEELKSLDK [V11K] here?
Answer: 5.99

Question: For QSLDQEILLKLKTEIEEELKSLDK [V11L], which protein stability index is on record?
Answer: 3.5

Question: For QSLDQEILLKEKTEIEEELKSLDK [V11E], which protein stability index is on record?
Answer: 5.63

Question: For QSLDQEILLKVKTEIEERLKSLDK [E18R], which protein stability index is on record?
Answer: 4.16

Question: For QSLDQEILLKVKTEIEEPLKSLDK [E18P], which protein stability index is on record?
Answer: 4.32

Question: Which protein stability index does the source give for QSLDQEILLKVKTEIEELLKSLDK [E18L] here?
Answer: 3.06

Question: With QSLDQEILLKVKTEIEEQLKSLDK [E18Q] as the variant, how does the protein stability index read?
Answer: 3.88

Question: For QSLDQEILLKVKTEIEEDLKSLDK [E18D], which protein stability index is on record?
Answer: 5.58

Question: Which protein stability index does the source give for QSLDQEILLKVKTEIEEMLKSLDK [E18M] here?
Answer: 1.98

Question: Which protein stability index does the source give for QSLDQEILLKVKTEIEEFLKSLDK [E18F] here?
Answer: 3.8

Question: With QSLDQEILLKVKTEIEEGLKSLDK [E18G] as the variant, how does the protein stability index read?
Answer: 4.62

Question: With QSLDQEILLKVKTEIEETLKSLDK [E18T] as the variant, how does the protein stability index read?
Answer: 3.92

Question: With QSLDQEILLKVKTEIEEALKSLDK [E18A] as the variant, how does the protein stability index read?
Answer: 4.02

Question: Which protein stability index does the source give for QSLDQEILLKVKTEIEECLKSLDK [E18C] here?
Answer: 3.41

Question: Which protein stability index does the source give for QSLDQEILLKVKTEIEENLKSLDK [E18N] here?
Answer: 4.4

Question: Which protein stability index does the source give for QSLDQEILRKVKTEIEEELKSLDK [L9R] here?
Answer: 5.05

Question: Which protein stability index does the source give for QSLDQEILTKVKTEIEEELKSLDK [L9T] here?
Answer: 5.25

Question: With QSLDQEILWKVKTEIEEELKSLDK [L9W] as the variant, how does the protein stability index read?
Answer: 4.4

Question: With QSLDQEILGKVKTEIEEELKSLDK [L9G] as the variant, how does the protein stability index read?
Answer: 5.13

Question: With QSLDQEILPKVKTEIEEELKSLDK [L9P] as the variant, how does the protein stability index read?
Answer: 4.87

Question: Which protein stability index does the source give for QSLDQEILLKVKTEIEVELKSLDK [E17V] here?
Answer: 2.69

Question: With QSLDQEILLKVKTEIEMELKSLDK [E17M] as the variant, how does the protein stability index read?
Answer: 4.08

Question: Which protein stability index does the source give for QSLDQEILLKVKTEIEGELKSLDK [E17G] here?
Answer: 4.93

Question: With QSLDQEILLKVKTEIENELKSLDK [E17N] as the variant, how does the protein stability index read?
Answer: 4.11

Question: For QSLDQEILLKVKTEIEIELKSLDK [E17I], which protein stability index is on record?
Answer: 3.49

Question: With QSLDQEILLKVKTEIEHELKSLDK [E17H] as the variant, how does the protein stability index read?
Answer: 4.51

Question: Which protein stability index does the source give for QSLDQEILLKVKTEIERELKSLDK [E17R] here?
Answer: 3.99

Question: With QSLDQEILLKVKTEIESELKSLDK [E17S] as the variant, how does the protein stability index read?
Answer: 4.81

Question: Which protein stability index does the source give for QSLDQEWLLKVKTEIEEELKSLDK [I7W] here?
Answer: 2.94

Question: With QSLDQETLLKVKTEIEEELKSLDK [I7T] as the variant, how does the protein stability index read?
Answer: 4.27

Question: Which protein stability index does the source give for QSLDQELLLKVKTEIEEELKSLDK [I7L] here?
Answer: 5.32

Question: For QSLDQEELLKVKTEIEEELKSLDK [I7E], which protein stability index is on record?
Answer: 5.63

Question: For QSLDQEDLLKVKTEIEEELKSLDK [I7D], which protein stability index is on record?
Answer: 5.68

Question: Which protein stability index does the source give for QSLDQERLLKVKTEIEEELKSLDK [I7R] here?
Answer: 5.61

Question: Which protein stability index does the source give for QSLDQEQLLKVKTEIEEELKSLDK [I7Q] here?
Answer: 5.12

Question: For QQLDQEILLKVKTEIEEELKSLDK [S2Q], which protein stability index is on record?
Answer: 4.97

Question: Which protein stability index does the source give for QMLDQEILLKVKTEIEEELKSLDK [S2M] here?
Answer: 4.2

Question: With QFLDQEILLKVKTEIEEELKSLDK [S2F] as the variant, how does the protein stability index read?
Answer: 4.24

Question: Which protein stability index does the source give for QCLDQEILLKVKTEIEEELKSLDK [S2C] here?
Answer: 4.09

Question: Which protein stability index does the source give for QKLDQEILLKVKTEIEEELKSLDK [S2K] here?
Answer: 4.24

Question: With QVLDQEILLKVKTEIEEELKSLDK [S2V] as the variant, how does the protein stability index read?
Answer: 4.16

Question: Which protein stability index does the source give for QRLDQEILLKVKTEIEEELKSLDK [S2R] here?
Answer: 4.49

Question: Which protein stability index does the source give for QNLDQEILLKVKTEIEEELKSLDK [S2N] here?
Answer: 4.92

Question: With QSKDQEILLKVKTEIEEELKSLDK [L3K] as the variant, how does the protein stability index read?
Answer: 4.88

Question: With QSMDQEILLKVKTEIEEELKSLDK [L3M] as the variant, how does the protein stability index read?
Answer: 5.47

Question: With QSSDQEILLKVKTEIEEELKSLDK [L3S] as the variant, how does the protein stability index read?
Answer: 5.31

Question: Which protein stability index does the source give for QSTDQEILLKVKTEIEEELKSLDK [L3T] here?
Answer: 4.99

Question: Which protein stability index does the source give for QSNDQEILLKVKTEIEEELKSLDK [L3N] here?
Answer: 5.64

Question: With QSYDQEILLKVKTEIEEELKSLDK [L3Y] as the variant, how does the protein stability index read?
Answer: 5.07

Question: Which protein stability index does the source give for QSCDQEILLKVKTEIEEELKSLDK [L3C] here?
Answer: 4.97

Question: With QSWDQEILLKVKTEIEEELKSLDK [L3W] as the variant, how does the protein stability index read?
Answer: 4.66

Question: For QSLDQEILLKVKTEIMEELKSLDK [E16M], which protein stability index is on record?
Answer: 3.09

Question: Which protein stability index does the source give for QSLDQEILLKVKTEIIEELKSLDK [E16I] here?
Answer: 4.35

Question: Which protein stability index does the source give for QSLDQEILLKVKTEIFEELKSLDK [E16F] here?
Answer: 3.53

Question: For QSLDQEILLKVKTEISEELKSLDK [E16S], which protein stability index is on record?
Answer: 4.93

Question: For QSLDQEILLKVKTEIVEELKSLDK [E16V], which protein stability index is on record?
Answer: 3.69

Question: Which protein stability index does the source give for QSLDQEILLKVKTEIKEELKSLDK [E16K] here?
Answer: 4.76

Question: Which protein stability index does the source give for QSLDQEILLKVKTEINEELKSLDK [E16N] here?
Answer: 5.02

Question: Which protein stability index does the source give for QSLDQEILLKVKTEIWEELKSLDK [E16W] here?
Answer: 3.66

Question: Which protein stability index does the source give for QSLDQEILLKVKTEIYEELKSLDK [E16Y] here?
Answer: 3.87

Question: Which protein stability index does the source give for QSLDQEILLKVKTEILEELKSLDK [E16L] here?
Answer: 3.23

Question: With QSLDQEILLKVKTEIEEELKSLHK [D23H] as the variant, how does the protein stability index read?
Answer: 3.7

Question: With QSLDQEILLKVKTEIEEELKSLQK [D23Q] as the variant, how does the protein stability index read?
Answer: 4.48

Question: Which protein stability index does the source give for QSLDQEILLKVKTEIEEELKSLLK [D23L] here?
Answer: 2.2

Question: Which protein stability index does the source give for QSLDQEILLKVKTEIEEELKSLAK [D23A] here?
Answer: 2.63

Question: With QSLDQEILLKVKTEIEEELKSLPK [D23P] as the variant, how does the protein stability index read?
Answer: 4.85

Question: With QSLDQEILLKVKTEIEEELKSLNK [D23N] as the variant, how does the protein stability index read?
Answer: 4.04

Question: Which protein stability index does the source give for QSLDQEILLKVKTEIEEELKSLKK [D23K] here?
Answer: 4.33

Question: Which protein stability index does the source give for QSLDQEILLKVKTEIEEELKSLMK [D23M] here?
Answer: 2.33

Question: For QSLDQEISLKVKTEIEEELKSLDK [L8S], which protein stability index is on record?
Answer: 5.18

Question: Which protein stability index does the source give for QSLDQEITLKVKTEIEEELKSLDK [L8T] here?
Answer: 5.71

Question: Which protein stability index does the source give for QSLDQEIVLKVKTEIEEELKSLDK [L8V] here?
Answer: 5.32

Question: For QSLDQEIWLKVKTEIEEELKSLDK [L8W], which protein stability index is on record?
Answer: 2.91

Question: Which protein stability index does the source give for QSLDQEIHLKVKTEIEEELKSLDK [L8H] here?
Answer: 5.63

Question: Which protein stability index does the source give for QSLDQEIMLKVKTEIEEELKSLDK [L8M] here?
Answer: 5.37

Question: For QSLDQEIILKVKTEIEEELKSLDK [L8I], which protein stability index is on record?
Answer: 4.14

Question: For QSLDQEILLKVKTEIEEELKSNDK [L22N], which protein stability index is on record?
Answer: 5.16

Question: For QSLDQEILLKVKTEIEEELKSYDK [L22Y], which protein stability index is on record?
Answer: 5.02

Question: Which protein stability index does the source give for QSLDQEILLKVKTEIEEELKSMDK [L22M] here?
Answer: 5.12

Question: For QSLDQEILLKVKTEIEEELKSKDK [L22K], which protein stability index is on record?
Answer: 5.47

Question: For QSLDQEILLKVKTEIEEELKSQDK [L22Q], which protein stability index is on record?
Answer: 5.3

Question: For QSLDQEILLKVKTEIEEELKSRDK [L22R], which protein stability index is on record?
Answer: 4.67

Question: Which protein stability index does the source give for QSLDQEILLKVKTEIEEELKSTDK [L22T] here?
Answer: 5.13

Question: Which protein stability index does the source give for QSLDQEILLKVKTEIEEELKSVDK [L22V] here?
Answer: 5.2

Question: With QSLDQEILLKVKTEIEEELKSADK [L22A] as the variant, how does the protein stability index read?
Answer: 4.81

Question: Which protein stability index does the source give for YSLDQEILLKVKTEIEEELKSLDK [Q1Y] here?
Answer: 3.69

Question: With GSLDQEILLKVKTEIEEELKSLDK [Q1G] as the variant, how does the protein stability index read?
Answer: 4.67

Question: Which protein stability index does the source give for ESLDQEILLKVKTEIEEELKSLDK [Q1E] here?
Answer: 4.67

Question: For KSLDQEILLKVKTEIEEELKSLDK [Q1K], which protein stability index is on record?
Answer: 4.38

Question: Which protein stability index does the source give for MSLDQEILLKVKTEIEEELKSLDK [Q1M] here?
Answer: 4.16

Source: the supplement of paper PMC10567573
